Substrate in the series: CCn1c(=NN=c2sc3cc(S(=O)(=O)O)ccc3n2CC)sc2cc(S(=O)(=O)O)ccc21
Nature of the series: purified protein. Format: biochemical, Bacillus subtilis. The settings on record: no H2O2, applied potential −0.190 V, aerobic (O2), pH 7.6, 298 K, 20 mM TRIS-HCl, 200 mM KCl, 25.0 °C.

The values that follow come from article PMC8653965, “Direct Electrochemical Generation of Catalytically Competent Oxyferryl Species of Classes I and P Dye Decolorizing Peroxidases” (International Journal of Molecular Sciences, 2021).

B1: BsDyP (Bacillus subtilis subsp. subtilis str. 168) (protein)
chain: IGASGLGGLAPLVQTAAKPSKKDEKEEEQIVPFYGKHQAGITTAHQTYVYFAALDVTAKDKSDIITLFRNWTSLTQMLTSGKKMSAEQRNQYLPPQDTGESADLSPSNLTVTFGFGPGFFEKDGKDRFGLKSKKPKHLAALPAMPNDNLDEKQGGGDICIQVCADDEQVAFHALRNLLNQAVGTCEVRFVNKGFLSGGKNGETPRNLFGFKDGTGNQSTKDDTLMNSIVWIQSGEPDWMTGGTYMAFRKIKMFLEVWDRSSLKDQEDTFGRRKSSGAPFGQKKETDPVKLNQIPSNSHVSLAKSTGKQILRRAFSYTEGLDPKTGYMDAGLLFISFQKNPDNQFIPMLKALSAKDALNEYTQTIGSALYACPGGCKKGEYIAQRLLES
notes: signal (Tat) peptide deleted; plasmid pVB4; expressed in E. coli Tuner; purified
As a reminder, the Km is the concentration of substrate that gives half-maximal velocity. By kcat is commonly meant the number of substrate molecules converted per active site and unit of time at saturation. By kcat/Km is commonly meant the second-order rate constant that governs catalysis at low substrate concentration. Regarding B1, the Km is 1155 ± 100 µM, the kcat amounted to 18 ± 1 s⁻¹ and the specificity constant (kcat/Km) turned out to be 16000 M⁻¹ s⁻¹.
